Measured values from patent US20240150494A1.

Columns and labels:
[1] = biological target: G2F-Rituximab (galactosylated fucosylated glycoform of rituximab) (human); assay: SPR, 256 to 8 nM in 2-fold steps
[2] = biological target: G2-Rituximab (galactosylated afucosylated glycoform of rituximab) (human); assay: SPR, 256 to 8 nM in 2-fold steps

In the case of “tetrameric FcγRIIIA (from UniProt P08637 17-208) (receptor)”, the KD1 [1] is reported as 55.2 nM, the KD2 [1] is reported as 2.29 nM and the KD1 [2] is reported as 29.9 nM. The KD2 [2] was 2.3 nM.
